# In US20230416942A1 (YALE UNIVERSITY, published 2023):
# T1: PROCR (human, UniProt Q9UNN8 18-210)
# T1 construct: Recombinant human protein in ELISA and BLI
# T1 sequence (looked up): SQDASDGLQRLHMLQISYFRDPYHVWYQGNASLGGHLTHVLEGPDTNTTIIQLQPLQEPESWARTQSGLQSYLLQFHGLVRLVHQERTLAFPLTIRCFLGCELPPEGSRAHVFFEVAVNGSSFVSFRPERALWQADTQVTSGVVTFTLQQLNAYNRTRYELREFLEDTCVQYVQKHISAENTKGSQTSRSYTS
# T2: CEACAM4 (human, UniProt O75871 36-155, limits assumed)
# T2 construct: Recombinant human protein in ELISA
# T2 sequence (looked up): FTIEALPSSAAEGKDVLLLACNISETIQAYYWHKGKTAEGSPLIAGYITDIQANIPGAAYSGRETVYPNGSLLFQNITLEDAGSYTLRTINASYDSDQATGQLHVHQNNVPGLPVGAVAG
# T3: TIGIT (human, UniProt Q495A1 22-141)
# T3 construct: Recombinant human protein in ELISA
# T3 sequence (looked up): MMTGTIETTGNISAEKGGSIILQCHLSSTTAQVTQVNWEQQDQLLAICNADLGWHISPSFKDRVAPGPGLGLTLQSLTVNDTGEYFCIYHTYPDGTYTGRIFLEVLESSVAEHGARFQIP
# T4: TNFSF18 (recombinant human protein) (human, UniProt Q9UNG2 52-177, limits assumed)
# T4 construct: Recombinant human protein immobilized at 5 ug/mL for ELISA
# T4 sequence (looked up): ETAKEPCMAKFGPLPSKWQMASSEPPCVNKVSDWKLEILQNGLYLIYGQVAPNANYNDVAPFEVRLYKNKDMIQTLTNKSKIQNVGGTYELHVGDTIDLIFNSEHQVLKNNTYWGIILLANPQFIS
# T5: TNFRSF17 (recombinant human protein) (human, UniProt Q02223 1-54)
# T5 construct: Recombinant human protein immobilized at 5 ug/mL for ELISA
# T5 sequence (looked up): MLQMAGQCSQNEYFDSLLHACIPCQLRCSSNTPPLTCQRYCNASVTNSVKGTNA
# B1: PROCR_Nb83 (Fc fusion)
# chain: QVQLQESGGGLVQAGGSLRLSCAASGNISPTRFMGWYRQAPGKEREFVAAIDLGTTTNYADSVKGRFTISRDNAKNTVYLQMNSLKPEDTAVYYCAADWNGPWSFWYWGQGTQVTVSS
# notes: Nanobody expressed and tested as Fc fusion (human IgG1); not shown: human IgG1 Fc (vector pCER243)
# B2: PROCR_Nb85 (Fc fusion)
# chain: QVQLQESGGGLVQAGGSLRLSCAASGNISVLVYMGWYRQAPGKERELVAAITTGTSTYYADSVKGRFTISRDNAKNTVYLQMNSLKPEDTAVYYCAADYYGPWYHQYWGQGTQVTVSS
# notes: as for B1
# B3: PROCR_Nb89 (Fc fusion)
# chain: QVQLQESGGGLVQAGGSLRLSCAASGTIFRDDNMGWYRQAPGKEREFVAAIGYGSTTNYADSVKGRFTISRDNAKNTVYLQMNSLKPEDTAVYYCAVRNTYWNLLQYWGQGTQVTVSS
# notes: as for B1
# B4: PROCR_Nb90 (Fc fusion)
# chain: QVQLQESGGGLVQAGGSLRLSCAASGTISGGYNMGWYRQAPGKEREFVATIGDGSSTYYADSVKGRFTISRDNAKNTVYLQMNSLKPEDTAVYYCAAFNSAQYWYESPFRYWGQGTQVTVSS
# notes: as for B1
# B5: CEACAM4_Nb36 (Fc fusion)
# chain: QVQLQESGGGLVQAGGSLRLSCAASGNIFLGPYMGWYRQAPGKEREFVASINYGASTNYADSVKGRFTISRDNAKNTVYLQMNSLKPEDTAVYYCAAGYYSNDYYYYEYSYWGQGTQVTVSS
# notes: as for B1
# B6: CEACAM4_Nb40 (Fc fusion)
# chain: QVQLQESGGGLVQAGGSLRLSCAASGTISPGYGMGWYRQAPGKEREFVATIAFGSSTYYADSVKGRFTISRDNAKNTVYLQMNSLKPEDTAVYYCAVAIYIPYFFRYWGQGTQVTVSS
# notes: as for B1
# B7: CEACAM4_Nb41 (Fc fusion)
# chain: QVQLQESGGGLVQAGGSLRLSCAASGTISRSSIMGWYRQAPGKEREFVAGISYGSTTYYADSVKGRFTISRDNAKNTVYLQMNSLKPEDTAVYYCAVRDLYVWDHAYWGQGTQVTVSS
# notes: as for B1
# B8: IL21_Nb2.28 (Fc fusion)
# chain: QVQLQESGGGLVQAGGSLRLSCAASGSISNTYVMGWYRQAPGKERELVAAIGHGGTTYYADSVKGRFTISRDNAKNTVYLQMNSLKPEDTAVYYCAVYLSRVRKFYYWGQGTQVTVSS
# notes: as for B1
# B9: IL21 Nb2.29 (Fc fusion)
# chain: QVQLQESGGGLVQAGGSLRLSCAASGNISWGTIMGWYRQAPGKEREFVAAISHGANTNYADSVKGRFTISRDNAKNTVYLQMNSLKPEDTAVYYCAAQSRAGSTRPRYHKYWGQGTQVTVSS
# notes: as for B1
# B10: IL21_Nb2.30 (Fc fusion)
# chain: QVQLQESGGGLVQAGGSLRLSCAASGTIFRETVMGWYRQAPGKERELVAAIDDGTSTYYADSVKGRFTISRDNAKNTVYLQMNSLKPEDTAVYYCAARASYTYGRLRFRYWGQGTQVTVSS
# notes: as for B1
# B11: TIGIT_Nb2.81 (Fc fusion)
# chain: QVQLQESGGGLVQAGGSLRLSCAASGTISLLEYMGWYRQAPGKEREFVAAITGGSSTNYADSVKGRFTISRDNAKNTVYLQMNSLKPEDTAVYYCAASLVPYDKDNLFFGYWGQGTQVTVSS
# notes: as for B1
# B12: CD3D_Nb2.33 (Fc fusion)
# chain: QVQLQESGGGLVQAGGSLRLSCAASGSIFYAEYMGWYRQAPGKEREFVAAITAGSTTYYADSVKGRFTISRDNAKNTVYLQMNSLKPEDTAVYYCAADGYYYGIEFTYYEYWGQGTQVTVSS
# notes: as for B1
# B13: CD3D_Nb2.34 (Fc fusion)
# chain: QVQLQESGGGLVQAGGSLRLSCAASGTISTLDYMGWYRQAPGKEREFVAAINYGSNTYYADSVKGRFTISRDNAKNTVYLQMNSLKPEDTAVYYCAAADVTRPAYDYWGQGTQVTVSS
# notes: as for B1
# B14: CD3D_Nb2.35 (Fc fusion)
# chain: QVQLQESGGGLVQAGGSLRLSCAASGTIFAYWYMGWYRQAPGKEREFVAAIGDGSSTYYADSVKGRFTISRDNAKNTVYLQMNSLKPEDTAVYYCAAEAPGYGHTYWGQGTQVTVSS
# notes: as for B1
# B15: CD3D_Nb2.36 (Fc fusion)
# chain: QVQLQESGGGLVQAGGSLRLSCAASGSISAYWAMGWYRQAPGKEREFVAAINFGANTYYADSVKGRFTISRDNAKNTVYLQMNSLKPEDTAVYYCAAERDGDYHDYWGQGTQVTVSS
# notes: as for B1
# B16: TNFRSF17_Nb2.18 (Fc fusion)
# chain: QVQLQESGGGLVQAGGSLRLSCAASGNIFRGWYMGWYRQAPGKEREFVATIASGGSTYYADSVKGRFTISRDNAKNTVYLQMNSLKPEDTAVYYCAVWDWEPGDYAYWGQGTQVTVSS
# notes: Nanobody expressed as an Fc fusion protein (fused with human IgG1) in Expi293 cells; not shown: human IgG1 Fc; nanobodies expressed as Fc fusion from vector pCER243
# B17: TNFRSF17_Nb2.19 (Fc fusion)
# chain: QVQLQESGGGLVQAGGSLRLSCAASGTISHPTYMGWYRQAPGKEREFVAGISDGTNTYYADSVKGRFTISRDNAKNTVYLQMNSLKPEDTAVYYCAAITSWDYGYGYWGQGTQVTVSS
# notes: as for B16
# B18: TNFRSF17_Nb2.21 (Fc fusion)
# chain: QVQLQESGGGLVQAGGSLRLSCAASGTIFQYDYMGWYRQAPGKEREFVAAIAYGGNTNYADSVKGRFTISRDNAKNTVYLQMNSLKPEDTAVYYCAAWSWRRSRAYWGQGTQVTVSS
# notes: as for B16
# B19: TNFRSF17_Nb2.23 (Fc fusion)
# chain: QVQLQESGGGLVQAGGSLRLSCAASGYISRYDYMGWYRQAPGKERELVAAINSGASTYYADSVKGRFTISRDNAKNTVYLQMNSLKPEDTAVYYCAVRSWGLDDYAYWGQGTQVTVSS
# notes: as for B16
# B20: TNFSF18_Nb94 (Fc fusion)
# chain: QVQLQESGGGLVQAGGSLRLSCAASGNISLYYDMGWYRQAPGKERELVAAIDPGTITYYADSVKGRFTISRDNAKNTVYLQMNSLKPEDTAVYYCAVVIPDYVYRYVVGTVDYGYWGQGTQVTVSS
# notes: as for B16
# B21: TNFSF18_Nb96 (Fc fusion)
# chain: QVQLQESGGGLVQAGGSLRLSCAASGNISWVYWMGWYRQAPGKERELVAGIATGGSTNYADSVKGRFTISRDNAKNTVYLQMNSLKPEDTAVYYCAVVASNGSRFWYWGQGTQVTVSS
# notes: as for B16
# B22: TNFSF18_Nb98 (Fc fusion)
# chain: QVQLQESGGGLVQAGGSLRLSCAASGSIFYVIAMGWYRQAPGKERELVATITAGTNTYYADSVKGRFTISRDNAKNTVYLQMNSLKPEDTAVYYCAVYALQQDVYDRSHAYWGQGTQVTVSS
# notes: as for B16
# B23: TNFSF18_Nb101 (Fc fusion)
# chain: QVQLQESGGGLVQAGGSLRLSCAASGYIFDDYGMGWYRQAPGKERELVATINAGANTNYADSVKGRFTISRDNAKNTVYLQMNSLKPEDTAVYYCAVYYGPYYRYLDPYLYWGQGTQVTVSS
# notes: as for B16
# B24: TNFSF18_Nb93 (Fc fusion)
# chain: QVQLQESGGGLVQAGGSLRLSCAASGNISDPPFMGWYRQAPGKERELVAGISWGASTYYADSVKGRFTISRDNAKNTVYLQMNSLKPEDTAVYYCAAVTTDFGAYPFAYWGQGTQVTVSS
# notes: as for B16
# B25: TNFRSF17_Nb2.20 (Fc fusion)
# chain: QVQLQESGGGLVQAGGSLRLSCAASGTIFSDYMGWYRQAPGKEREFVATIAVGSITYYADSVKGRFTISRDNAKNTVYLQMNSLKPEDTAVYYCAVWDASWADYAYWGQGTQVTVSS
# notes: as for B16
# Target: T1, PROCR
# Assay: ELISA, plate-coated recombinant human protein, nanobody-Fc
# Description: (§1) Recombinant human protein was diluted in PBS to a final concentration of 5 μg/mL and was immobilized on 96-well flat bottom MaxiSorp plates (Thermo Fisher Scientific) and placed at 4° C. overnight. Plates were washed three times with 225 μL ELISA wash buffer (PBS with 0.05% Tween 20) and 200 μL ELISA blocking buffer (PBS with 1% Casein) was added to the well. Plates were incubated with shaking for 2 hours at room temperature. ELISA blocking buffer was removed from the wells and appropriate dilutions of recombinant nanobodies in 100 μL ELISA blocking buffer was added to each well. Plates were incubated with shaking for 2 hours at room temperature. Plates were washed 3 times with 225 μL ELISA wash buffer and 1:5000 goat anti-human IgG HRP (Millipore Sigma) in 100 μL ELISA blocking buffer was added to the wells. Plates were incubated with shaking for 1 hour at room temperature. Plates were washed 6 times with 225 μL ELISA wash buffer. 50 μL TMB substrate (BD Biosciences) was added to the wells and plates were incubated for 15 minutes in the dark at room temperature. 50 μL 1 M sulfuric acid was added to the wells and absorbance at 450 nm was measured in a Synergy HTX Multi-Mode Microplate Reader (BioTek).
row,Binder,EC50 [nM]
1,B1,1.27
2,B2,0.352
3,B3,0.565
4,B4,1.74

# Target: T2, CEACAM4
# Assay: as above
# Description: as §1
row,Binder,EC50 [nM]
1,B5,15.6
2,B6,14.5
3,B7,32.7

# Target: T6, IL21 (human, UniProt Q9HBE4 32-162, limits assumed)
# T6 construct: Recombinant human protein in ELISA
# Assay: as above
# Description: as §1
# T6 sequence (Q9HBE4 32-162 limits assumed): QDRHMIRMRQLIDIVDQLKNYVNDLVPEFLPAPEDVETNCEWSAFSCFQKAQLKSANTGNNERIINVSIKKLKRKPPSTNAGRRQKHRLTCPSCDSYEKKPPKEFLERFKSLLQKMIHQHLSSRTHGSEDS
row,Binder,EC50 [nM]
1,B8,3.14
2,B9,3.73
3,B10,7.16

# Target: T3, TIGIT
# Assay: as above
# Description: as §1
row,Binder,EC50 [nM]
1,B11,29.8

# Target: T7, CD3D (human, UniProt P04234 22-105)
# T7 construct: Recombinant human protein in ELISA
# Assay: as above
# Description: as §1
# T7 sequence (P04234 22-105 limits assumed): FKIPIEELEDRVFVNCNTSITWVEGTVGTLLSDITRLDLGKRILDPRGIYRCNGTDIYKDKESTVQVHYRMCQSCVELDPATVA
row,Binder,EC50 [nM]
1,B12,8.22
2,B13,0.575
3,B14,1.72
4,B15,29.6

# Target: REAP Off-Targets
# Assay: REAP, nanobody-Fc on yeast-displayed human antigen library
row,Binder,REAP Off-Targets (number) [off-targets]
1,B16,1
2,B17,3
3,B18,5
4,B19,2
5,B20,1
6,B21,6
7,B22,4

# Target: T4, TNFSF18 (recombinant human protein)
# Assay: ELISA, recombinant human protein coated, nanobody-Fc titrated, anti-human IgG HRP
# Description: as §1
row,Binder,EC50 [nM]
1,B20,71.8
2,B21,4.07
3,B22,6.05
4,B23,22.6
5,B24,1.59

# Target: T5, TNFRSF17 (recombinant human protein)
# Assay: as above
# Description: as §1
row,Binder,EC50 [nM]
1,B16,2.82
2,B17,2.84
3,B18,4.75
4,B19,7.57
5,B25,1.02
